Assays:
Ylehd = biological target: T1, Ylehd (Yarrowia lipolytica, UniProt Q6C598); experiment: spectrophotometric residual epoxide assay, […] nm; assay type: biochemical; details: epoxide hydrolase activity; 50 mM Tris-sulphate, pH 8.0, 30 °C
T1 construct: gene YALI0_E19899g; full-length ORF in pET28a, His-tagged, E. coli BL21AI; 352 amino acids; 43 kDa monomer; likely dimer at pH 8.0 (EH), tetramer at pH 4.5 (HLD)

[1] = biological target: Ylehd (epoxide hydrolase with promiscuous haloalkane dehalogenase activity from Yarrowia lipolytica NCIM 3589) (Yarrowia lipolytica NCIM 3589); experiment: SEC; Superdex S200 10/300GL equilibrated with 50 mM Tris-sulphate buffer pH 8.0; mass from calibration with proteins of known molecular mass
[2] = biological target: Ylehd (epoxide hydrolase with promiscuous haloalkane dehalogenase activity from Yarrowia lipolytica NCIM 3589) (Yarrowia lipolytica NCIM 3589); experiment: SEC; Superdex S200 10/300GL equilibrated with 50 mM sodium acetate buffer pH 4.5; mass from calibration with proteins of known molecular mass

Km (Ylehd) | stoichiometry N [1] | stoichiometry N [2] | Molecule
500 ± 45 µM |  |  | CCCCCCC1CO1 (stereo not drawn) [1,2-Epoxyoctane]
 | 2 | 4 | Ylehd (epoxide hydrolase with promiscuous haloalkane dehalogenase activity from Yarrowia lipolytica NCIM 3589) (enzyme)
